In general, Kd refers to the constant that tells how readily two partners part at equilibrium.

What all share (assay): fluorescence anisotropy
A general note: In fluorescence polarisation assays a small probe gives low polarisation when free and higher when bound to something large.

One series addresses T1, YTHDC2 YTH domain (Homo sapiens, UniProt Q9H6S0 1277-1430).
T1 sequence: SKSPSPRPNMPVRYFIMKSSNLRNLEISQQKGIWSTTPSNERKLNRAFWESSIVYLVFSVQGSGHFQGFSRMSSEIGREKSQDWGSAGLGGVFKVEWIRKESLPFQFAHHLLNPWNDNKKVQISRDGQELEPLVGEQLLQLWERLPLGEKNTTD

For another series, the target named is T2, YTHDC2 YTH domain W1360A (Homo sapiens, UniProt Q9H6S0 1277-1430, W1360A).
T2 sequence: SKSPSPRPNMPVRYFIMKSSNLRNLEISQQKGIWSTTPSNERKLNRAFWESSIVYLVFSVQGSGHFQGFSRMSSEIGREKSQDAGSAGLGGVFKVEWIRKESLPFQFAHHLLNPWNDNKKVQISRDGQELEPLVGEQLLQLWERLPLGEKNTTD

Another series concerns the target T3, YTHDC2 YTH domain W1310A (Homo sapiens, UniProt Q9H6S0 1277-1430, W1310A).
T3 sequence: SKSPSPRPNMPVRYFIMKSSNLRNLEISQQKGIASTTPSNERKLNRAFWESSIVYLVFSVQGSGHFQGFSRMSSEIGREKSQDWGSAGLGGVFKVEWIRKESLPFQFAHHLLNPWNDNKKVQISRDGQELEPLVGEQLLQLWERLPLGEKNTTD

In the series with YTHDC2 YTH domain, CCGGACUGU (ssRNA, N6-methyladenosine at position 5) [GGm6ACU 9-nt RNA] yielded a Kd of 3.2 ± 0.3 µM. The binding result with YTHDC2 YTH domain W1360A and in the series with YTHDC2 YTH domain W1310A was “no binding” throughout.

These data come from publication PMC6140455.
